Tests used:
HEG1 1kb = molecular target: T1, HEG1 1kb (human, UniProt Q9ULI3 986-1381); assay: Western blot of cell lysate
T1 construct: Inserted into pFLAG-CMV1, expressed in ACC-MESO-1; also called fragment 1kb
T1 sequence: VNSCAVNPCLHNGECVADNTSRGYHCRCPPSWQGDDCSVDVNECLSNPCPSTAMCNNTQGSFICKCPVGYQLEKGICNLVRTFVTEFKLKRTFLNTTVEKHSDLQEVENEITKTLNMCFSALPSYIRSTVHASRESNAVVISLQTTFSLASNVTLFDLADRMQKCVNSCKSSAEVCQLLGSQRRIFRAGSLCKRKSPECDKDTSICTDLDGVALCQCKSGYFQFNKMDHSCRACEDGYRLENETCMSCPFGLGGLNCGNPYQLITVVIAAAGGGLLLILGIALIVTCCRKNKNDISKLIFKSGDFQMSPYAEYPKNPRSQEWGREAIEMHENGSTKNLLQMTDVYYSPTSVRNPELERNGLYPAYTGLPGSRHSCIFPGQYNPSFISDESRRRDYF
Procedure: Gene transfer was performed with HEG1 siRNA (H9106) (SEQ ID NOs: 40, 41) and human HEG1 for the mesothelioma cell line ACC-MESO-1, and the reactivity of the SKM9-2 was examined through Western blot analysis. A full length protein (HEG1 full length) or a fragment (HEG1 3kb, HEG1 2kb, or HEG1 1kb) of the human HEG1 was used. The full length human HEG1 protein, a protein having the amino acid sequence set forth in SEQ ID NO: 35, was obtained through inserting a base sequence set forth in SEQ ID NO: 34 into pFLAG-CMV1 (Sigma-Aldrich Japan K.K.) to obtain a plasmid, transforming the plasmid, and allowing the mesothelioma cell line to express the plasmid. Fragment HEG1 3kb was obtained through inserting a fragment corresponding to a sequence from position 285, leucine, to position 1387, phenylalanine, of SEQ ID NO: 35 into pFLAG-CMV1 (Sigma-Aldrich Japan K.K.) in an in-frame manner, and allowing the mesothelioma cell line to express the resultant. […] Each cell lysate was analyzed through Western blot with the SKM9-2 antibody.

[1] = molecular target: T2, HEG1 full length (full length human HEG1 protein expressed in ACC-MESO-1) (human, UniProt Q9ULI3 30-1381, limits assumed); assay: Western blot of ACC-MESO-1 cell lysate
T2 construct: Full length; expressed from pFLAG-CMV1 in ACC-MESO-1 with the endogenous HEG1 knocked down; cell lysate in Western blot; What the vector adds is not described; also called full length protein
T2 sequence: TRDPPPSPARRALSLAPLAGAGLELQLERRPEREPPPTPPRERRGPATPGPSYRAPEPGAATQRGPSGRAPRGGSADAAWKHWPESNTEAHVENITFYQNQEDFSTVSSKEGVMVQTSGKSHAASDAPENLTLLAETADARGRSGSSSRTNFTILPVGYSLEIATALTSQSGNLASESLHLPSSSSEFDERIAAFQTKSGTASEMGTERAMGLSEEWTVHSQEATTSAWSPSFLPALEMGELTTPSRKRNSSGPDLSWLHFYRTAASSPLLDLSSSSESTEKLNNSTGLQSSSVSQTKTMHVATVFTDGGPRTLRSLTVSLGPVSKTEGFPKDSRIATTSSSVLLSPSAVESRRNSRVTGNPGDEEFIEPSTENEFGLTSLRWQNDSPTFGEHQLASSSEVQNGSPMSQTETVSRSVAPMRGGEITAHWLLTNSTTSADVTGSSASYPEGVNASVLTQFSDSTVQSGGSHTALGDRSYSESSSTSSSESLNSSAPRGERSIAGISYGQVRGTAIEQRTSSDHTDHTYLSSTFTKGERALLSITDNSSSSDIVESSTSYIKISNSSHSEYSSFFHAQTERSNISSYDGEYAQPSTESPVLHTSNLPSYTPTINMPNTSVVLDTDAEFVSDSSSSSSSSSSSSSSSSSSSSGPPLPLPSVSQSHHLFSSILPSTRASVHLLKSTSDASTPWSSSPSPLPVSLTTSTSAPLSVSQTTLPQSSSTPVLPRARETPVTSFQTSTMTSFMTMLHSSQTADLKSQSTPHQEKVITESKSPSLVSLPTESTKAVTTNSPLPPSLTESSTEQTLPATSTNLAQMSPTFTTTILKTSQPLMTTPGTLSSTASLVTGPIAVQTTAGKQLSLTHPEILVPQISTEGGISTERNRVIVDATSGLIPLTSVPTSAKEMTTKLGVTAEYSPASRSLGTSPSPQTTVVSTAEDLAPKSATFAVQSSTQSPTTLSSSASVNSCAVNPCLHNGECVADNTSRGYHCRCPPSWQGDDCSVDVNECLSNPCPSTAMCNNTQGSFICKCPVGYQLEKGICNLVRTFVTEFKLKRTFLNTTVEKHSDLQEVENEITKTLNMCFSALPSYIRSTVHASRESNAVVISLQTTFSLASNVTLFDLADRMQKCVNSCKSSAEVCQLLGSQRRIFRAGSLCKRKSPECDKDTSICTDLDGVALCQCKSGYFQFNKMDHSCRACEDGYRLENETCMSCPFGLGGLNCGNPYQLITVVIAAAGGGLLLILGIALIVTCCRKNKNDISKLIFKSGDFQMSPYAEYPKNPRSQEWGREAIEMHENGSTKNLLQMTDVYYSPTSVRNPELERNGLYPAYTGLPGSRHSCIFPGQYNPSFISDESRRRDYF
Procedure: (§1) Gene transfer was performed with HEG1 siRNA (H9106) (SEQ ID NOs: 40, 41) and human HEG1 for the mesothelioma cell line ACC-MESO-1, and the reactivity of the SKM9-2 was examined through Western blot analysis. A full length protein (HEG1 full length) or a fragment (HEG1 3kb, HEG1 2kb, or HEG1 1kb) of the human HEG1 was used. The full length human HEG1 protein, a protein having the amino acid sequence set forth in SEQ ID NO: 35, was obtained through inserting a base sequence set forth in SEQ ID NO: 34 into pFLAG-CMV1 (Sigma-Aldrich Japan K.K.) to obtain a plasmid, transforming the plasmid, and allowing the mesothelioma cell line to express the plasmid. Fragment HEG1 3kb was obtained through inserting a fragment corresponding to a sequence from position 285, leucine, to position 1387, phenylalanine, of SEQ ID NO: 35 into pFLAG-CMV1 (Sigma-Aldrich Japan K.K.) in an in-frame manner, and allowing the mesothelioma cell line to express the resultant. HEG1 2kb and HEG1 1kb were obtained through allowing the mesothelioma cell line to express products similarly obtained from a fragment corresponding to a sequence from position 677, leucine, to position 1387, phenylalanine, of SEQ ID NO: 35 and a fragment corresponding to a sequence from position 992, valine, to position 1387, phenylalanine, of SEQ ID NO: 35, respectively. Each cell lysate was analyzed through Western blot with the SKM9-2 antibody.

HEG1 2kb = molecular target: T3, HEG1 2kb (human, UniProt Q9ULI3 671-1381); assay: Western blot of ACC-MESO-1 cell lysate
T3 construct: Inserted into pFLAG-CMV1, expressed in ACC-MESO-1; also called fragment 2kb
T3 sequence: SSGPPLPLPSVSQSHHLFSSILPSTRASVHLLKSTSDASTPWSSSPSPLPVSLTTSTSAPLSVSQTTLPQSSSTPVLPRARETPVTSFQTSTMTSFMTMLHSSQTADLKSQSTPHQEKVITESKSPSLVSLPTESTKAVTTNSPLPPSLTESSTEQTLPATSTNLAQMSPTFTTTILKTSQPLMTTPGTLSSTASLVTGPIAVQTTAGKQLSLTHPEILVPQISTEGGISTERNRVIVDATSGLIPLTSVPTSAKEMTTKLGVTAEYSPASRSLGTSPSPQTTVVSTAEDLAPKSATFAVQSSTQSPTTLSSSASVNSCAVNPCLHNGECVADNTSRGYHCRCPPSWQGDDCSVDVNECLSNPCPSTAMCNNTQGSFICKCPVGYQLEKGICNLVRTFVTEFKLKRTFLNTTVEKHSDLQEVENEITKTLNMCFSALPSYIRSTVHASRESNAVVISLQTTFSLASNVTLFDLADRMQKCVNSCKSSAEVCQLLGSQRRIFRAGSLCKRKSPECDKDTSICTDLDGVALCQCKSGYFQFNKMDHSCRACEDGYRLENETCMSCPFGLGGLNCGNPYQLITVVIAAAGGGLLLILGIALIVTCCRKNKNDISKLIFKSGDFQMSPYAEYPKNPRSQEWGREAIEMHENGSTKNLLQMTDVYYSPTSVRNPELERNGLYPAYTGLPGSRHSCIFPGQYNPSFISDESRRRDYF
Procedure: as §1

HEG1 3kb = molecular target: T4, HEG1 3kb (human, UniProt Q9ULI3 285-1381); assay: Western blot of ACC-MESO-1 cell lysate
T4 construct: Inserted in frame into pFLAG-CMV1, expressed in ACC-MESO-1; what the vector adds is not described; also called fragment 3kb
T4 sequence: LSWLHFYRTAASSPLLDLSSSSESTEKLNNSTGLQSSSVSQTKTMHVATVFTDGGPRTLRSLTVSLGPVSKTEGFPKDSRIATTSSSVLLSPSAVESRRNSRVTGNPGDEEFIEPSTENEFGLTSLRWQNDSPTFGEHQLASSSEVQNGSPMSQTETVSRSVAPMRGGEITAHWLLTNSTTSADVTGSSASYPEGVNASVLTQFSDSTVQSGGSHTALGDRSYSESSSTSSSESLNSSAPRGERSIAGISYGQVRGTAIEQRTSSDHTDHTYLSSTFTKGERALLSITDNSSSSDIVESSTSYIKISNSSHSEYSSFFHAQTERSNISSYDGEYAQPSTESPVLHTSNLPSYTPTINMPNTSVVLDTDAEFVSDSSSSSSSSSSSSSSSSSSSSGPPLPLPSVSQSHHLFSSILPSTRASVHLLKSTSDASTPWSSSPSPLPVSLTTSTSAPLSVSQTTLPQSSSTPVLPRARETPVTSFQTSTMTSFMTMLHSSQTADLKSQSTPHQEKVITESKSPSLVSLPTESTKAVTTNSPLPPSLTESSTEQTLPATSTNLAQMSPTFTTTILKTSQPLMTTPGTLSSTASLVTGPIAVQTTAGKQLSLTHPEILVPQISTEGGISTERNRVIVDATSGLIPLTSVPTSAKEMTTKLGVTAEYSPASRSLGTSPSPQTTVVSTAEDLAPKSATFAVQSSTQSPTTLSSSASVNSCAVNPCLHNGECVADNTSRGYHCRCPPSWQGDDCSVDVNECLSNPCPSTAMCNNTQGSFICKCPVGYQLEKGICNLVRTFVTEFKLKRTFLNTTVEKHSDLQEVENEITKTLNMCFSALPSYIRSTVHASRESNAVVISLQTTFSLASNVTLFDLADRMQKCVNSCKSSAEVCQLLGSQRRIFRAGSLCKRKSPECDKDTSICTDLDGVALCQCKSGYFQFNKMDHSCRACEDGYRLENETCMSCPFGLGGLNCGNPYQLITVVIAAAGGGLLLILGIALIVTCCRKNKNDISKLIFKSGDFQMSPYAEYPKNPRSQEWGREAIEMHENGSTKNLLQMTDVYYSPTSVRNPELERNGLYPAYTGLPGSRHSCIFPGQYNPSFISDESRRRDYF
Procedure: as §1

B1: SKM9-2 antibody (antibody, mouse IgG1, kappa, V domains shown)
VH: QVQLQQPGAELVRPGASVKLSCKASGFSFTTYWITWVKQRPGQGLEWIGMIHPSDSETRLSQTFKDKATLTVDKSSNTAYMQFSSPTSEDSAVYYCVRDFDVWGAGTTVTVSS
VL: DVLMTQTPLSLPVSLGDQASISCRSSQNIVHNNGNTYLGWYLQKPGQSPKLLIFKVSNRFSGVPDRFSGSGSGTDFTLKISRVEAEDLGVYYCFQGSHIPRTFGGGTRLEIKR
notes: also called monoclonal antibody produced from the SKM9-2 hybridoma
- binding result (HEG1 1kb): no binding
- binding result [1]: binds
- binding result (HEG1 2kb): binds
- binding result (HEG1 3kb): binds
